Laboratory results as given in the supplement of paper PMC6755084.

B1: F1*; the commonest letter at each place (parent)
chain: GAGACCGCAACTGAAAAGTTGTTATCACTTGTCGTAAGACACTTTGGATGGGTTGAAGTTCTGCACGTAGAAGCAAAAGGC

Variants of: B1
Assay: fraction ligated after 30 min (ligated reads / total reads); higher = more ligase activity
Conditions: with F1*sub RNA substrate (template-directed ligation), 42 °C
Procedure, shortened: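 Ribozyme variants were transcribed with T7 from PCR-amplified oligo-pool templates and gel-purified. Ligated and unligated bands, separated on gel, were reverse transcribed with barcoded primers and sequenced on a MiSeq, with core bases filtered at quality ≥20. Fraction ligated per variant was computed as ligated reads divided by total reads.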

Variant	fraction ligated
G34A T45C	0.795
G34A T45A	0.797
G34A T45G	0.368
G34A T49C	0.737
G34A T49A	0.786
G34A T49G	0.819
G34C A57C	0.817
G34C A57G	0.854
G34C A57T	0.769
C33G C42T	0.833
C33G C42G	0.853
C33G C42A	0.826
G34C G38T	0.811
G34C G38A	0.813
G34C G38C	0.818
C33G G34C	0.843
C33G G34A	0.829
C33G G34T	0.856
C33A G38A	0.857
C33A G38T	0.86
C33A G38C	0.832
C33T	0.869
C33A	0.869
C33G	0.831

Variant	fraction ligated
G34A A57C	0.791
G34A A57G	0.835
G34A A57T	0.822
C33T T44C	0.855
C33T T44A	0.844
C33T T44G	0.815
G34C C40T	0.803
G34C C40G	0.818
G34C C40A	0.805
G34A T43A	0.836
G34A T43G	0.799
G34A T43C	0.779
T32G A48T	0.143
T32G A48G	0.75
T32G A48C	0.401
C33A A48G	0.79
C33A A48C	0.784
C33A A48T	0.0887
T32G T44A	0.807
T32G T44G	0.821
T32G T44C	0.795
G34C A39G	0.807
G34C A39C	0.806
G34C A39T	0.781

Variant	fraction ligated
G34C A36T	0.832
G34C A36C	0.834
G34C A36G	0.824
C33A T45C	0.53
C33A T45G	0.0419
C33A T45A	0.803
C33T A57T	0.842
C33T A57G	0.861
C33T A57C	0.841
G34A G38C	0.825
G34A G38A	0.861
G34A G38T	0.838
C33A T35G	0.866
C33A T35A	0.879
C33A T35C	0.85
C33G T45C	0.273
C33G T45A	0.689
C33G T45G	0.0204
C33T A48T	0.452
C33T A48G	0.814
C33T A48C	0.789
C33G G38C	0.829
C33G G38A	0.847
C33G G38T	0.837

Variant	fraction ligated
C33G A57T	0.836
C33G A57C	0.847
C33G A57G	0.881
G34C A37C	0.806
G34C A37G	0.845
G34C A37T	0.839
T32G T43G	0.792
T32G T43A	0.812
T32G T43C	0.81
C33T A36T	0.88
C33T A36G	0.854
C33T A36C	0.843
G34A T44C	0.825
G34A T44A	0.842
G34A T44G	0.844
G34A A48G	0.795
G34A A48T	0.798
G34A A48C	0.772
G34A A39C	0.8
G34A A39T	0.818
G34A A39G	0.835
T32G G34A	0.83
T32G G34C	0.726
T32G G34T	0.793

Variant	fraction ligated
C33T A56C	0.795
C33T A56T	0.847
C33T A56G	0.797
G34C	0.832
G34A	0.848
G34A A37T	0.84
G34A A37G	0.859
G34A A37C	0.835
C33G T35G	0.843
C33G T35A	0.872
C33G T35C	0.825
C33T T45C	0.815
C33T T45G	0.103
C33T T45A	0.75
C33A A36T	0.868
C33A A36G	0.824
C33A A36C	0.844
C33A T44G	0.821
C33A T44A	0.805
C33A T44C	0.84
C33T G47C	0.165
C33T G47A	0.836
C33T G47T	0.32
T32G T45G	0.0918

Variant	fraction ligated
T32G T45C	0.346
T32G T45A	0.748
C33G G46A	0.811
C33G G46T	0.811
C33G G46C	0.779
G34A A41T	0.811
G34A A41G	0.81
G34A A41C	0.76
C33T A37C	0.868
C33T A37G	0.878
C33T A37T	0.854
C33G A48C	0.727
C33G A48T	0.0603
C33G A48G	0.793
C33T T49C	0.697
C33T T49G	0.801
C33T T49A	0.787
C33A A56G	0.812
C33A A56T	0.837
C33A A56C	0.742
C33G G55A	0.839
C33G G55T	0.777
C33G G55C	0.643
C33A A57T	0.849

Variant	fraction ligated
C33A A57C	0.834
C33A A57G	0.868
C33T G38C	0.835
C33T G38A	0.857
C33T G38T	0.847
T32G A56T	0.785
T32G A56G	0.799
T32G A56C	0.743
C33A A41G	0.823
C33A A41C	0.818
C33A A41T	0.839
T32G A41T	0.826
T32G A41C	0.794
T32G A41G	0.754
G34C G50A	0.17
G34C G50C	0.329
C33A A39G	0.84
C33A A39C	0.792
C33A A39T	0.852
C33A T49G	0.739
C33A T49A	0.725
C33A T49C	0.37
C33A T43C	0.834
